Where no end group is shown, it is not given here. The star is where a group is joined. FITC = O=C1OC2(c3ccc(O)cc3Oc3cc(O)ccc32)c2ccc(NC(=S)*)cc21
Assays:
Format in all cases: biochemical
protein kinase A = protein kinase A (Homo sapiens, UniProt P17612); experiment: Protein kinase A inhibitor assay with optical probe; conditions: inhibitor 10 μM, ATP 10 μM
Method: […] After one hour incubation at 30 C, chymotrypsin to a final concentration of 0.8 nM was added and the 460/530 ratio was determined after one hour, as described above (Example 6).

PTP-B = experiment: Inhibition of protein tyrosine phosphatase with phosphorylated Src-2 probe; conditions: read-out: apparent IC50
Method: (§1) Optical probes were first phosphorylated to completion as described above, and samples of phosphorylated optical probe, at a final concentration of 500 nM, were incubated with various concentrations of protein tyrosine phosphatase-B (PTP-B) agarose (Upstate Biotechnology) for 20 minutes at 30 C in 0.1×PBS. At the required time interval, PTP-B-agarose was removed by a brief microfuige spin prior to transfer to 96-well Cytofluor plates for fluorescence measurements, after addition of chymotrypsin (100 nM), as described in Example 1.

[1] = test system: protein tyrosine phosphatase-B (PTP-B); experiment: Dephosphorylation of phosphorylated optical probes by PTP-B; conditions: for Fluorescence emission ratio of peptide after protease treatment: phosphorylated probe 500 nM, 20 minutes at 30 C
Method: as §1
In this experiment, the relative rates of dephosphorylation of the phosphorylated Src-2-specific substrate (SEQ. ID. NO: 29) and an abl-specific (SEQ. I.D. No. 4) substrate optical probes by the protein tyrosine phosphatase PTP-B were compared.

Src kinase = target: T1, Src kinase (Homo sapiens, UniProt P12931); experiment: Src kinase phosphorylation of optical probes; conditions: fluorescence after protease incubation; read-out: apparent Km with respect to the Src kinase
T1 construct: purchased Upstate Biotechnology

protein kinase C = experiment: Proteolytic susceptibility of optical probe after protein kinase C phosphorylation; conditions: chymotrypsin
Text: To measure protein kinase C activity using the optical probes of the present invention, a peptide ([…], SEQ. ID. NO: 12) was designed in which phosphorylation by protein kinase C occurred at the P′1 position (underlined in SEQ. ID. NO: 12) with respect to the scissile bond cleaved by chymotrypsin. This enabled an optimal protein kinase C recognition motif to placed within the optical probe sequence, and to create a site of phosphorylation that modulated the proteolytic sensitivity of the substrate towards chymotrypsin.

chymotrypsin = chymotrypsin (Bos taurus, UniProt P00766); experiment: Chymotrypsin cleavage of optical probe with or without protein kinase A phosphorylation; conditions: for 460/530 emission ratio, Non-phosphorylated Optical probe / 460/530 emission ratio, Phosphorylated Optical probe: 0.8 nM chymotrypsin
Method: ID. NO: 12, below, (the P′1, position with respect to the protease cleavage site of chymotrypsin).
The peptide ([…], SEQ. ID. NO: 12) was labeled with fluorescein isothiocyanate at the N-termninus and 7-hydroxycoumarin-3-carboxamide at the C-terminus as described above. To determine the relative proteolytic activity of the phosphorylated and non-phosphorylated optical probes, samples of both were prepared. […] Mock kinase reactions with no ATP were used to create non-phosphorylated, control samples. In both cases, the samples were diluted 10 fold with buffer containing 50 mM HEPES, pH 7.5, 10 mM CaCl2 and 0.01% Brij-35, and incubated with 0.8 nM chymotrypsin.

caspase-3 = target: T2, caspase-3 (Homo sapiens, UniProt P42574); experiment: Caspase-3 cleavage of optical probe with or without ERK2 phosphorylation; conditions: 30 minutes exposure to caspase-3
T2 construct: purchased Upstate Biotechnology
T2 sequence (P42574 29-175 limits assumed): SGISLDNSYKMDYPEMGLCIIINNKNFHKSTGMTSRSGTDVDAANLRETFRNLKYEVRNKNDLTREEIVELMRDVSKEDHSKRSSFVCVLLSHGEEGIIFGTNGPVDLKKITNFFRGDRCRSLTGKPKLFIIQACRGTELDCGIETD
T2 sequence (P42574 176-277 limits assumed): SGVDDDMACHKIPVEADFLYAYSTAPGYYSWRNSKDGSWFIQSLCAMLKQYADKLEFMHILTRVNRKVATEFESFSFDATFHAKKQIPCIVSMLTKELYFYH
Method: To determine how phosphorylation on serine in the optical probe (SEQ. ID. NO: 24) effected the rate of caspase-3 cleavage, samples of phosphorylated and control (non-phosphorylated) optical probes were treated with the protease caspase-3. Phosphorylated samples of the optical probe (70 pmol) were prepared by 8 hour to overnight incubation with ERK2 kinase (Biomol). Reactions were typically performed in 10 μl using 200-500 μM ATP and 50-200 ng ERK2 in a buffer consisting of 50 mM HEPES, pH 7.5, 10 mM MgCl2, 1 mM EGTA, and 1 mM DTT at 30° C. Mock kinase reactions were performed for preparation of control (non-phosphorylated) optical probe as above, except ATP was omitted. To monitor cleavage of the optical probes by caspase-3, 10 μL volumes of phosphorylated and control (non-phosphorylated) samples of the optical probe were placed in individual wells of a 96-well multiwell plate. Caspase-3 cleavage reactions were carried out in these samples after dilution to 100 μL in a buffer consisting of 100 mM HEPES, pH 7.5, 5 mM DTT, 0.5 mM EDTA, 20% glycerol, 0.01% Brij-35, and 50-100 ng caspase-3 (Upstate Biotechnology), and incubated at room temperature. Emission readings were taken at 5 minute intervals during the course of the caspase-3 incubation using a Cytofluor plate reader as described in Example 1.

For `O=S(=O)(NCCNC/C=C/c1ccc(Br)cc1)c1cccc2cnccc12` [H-89], the “inhibition of protein kinase A activity” value (protein kinase A) was “almost complete inhibition”.
Compound `[O]=[V]([OH])([OH])[OH]` [Ortho-vanadate, orthovanadate] has an IC50 (PTP-B) of 420 nM.
In the case of “GEEEIYGVIEK [Src-2, fluorescently labeled optical probe for Src kinase; phosphorylated form is the PTP-B substrate]”, the “Fluorescence emission ratio of peptide after protease treatment” value (“Fluorescence emission ratio of peptide” below) ([1]; Log concentration of PTP-B −7.7) is reported as 17.7, the “Fluorescence emission ratio of peptide” value ([1]; Log concentration of PTP-B −8.7) is reported as 17.6 and the “Fluorescence emission ratio of peptide” value ([1]; Log concentration of PTP-B −9.7) is reported as 15.8. The “Fluorescence emission ratio of peptide” value ([1]; Log concentration of PTP-B −10.7) was 5.40, the “Fluorescence emission ratio of peptide” value ([1]; Log concentration of PTP-B −11.7) was 1.99 and the “Fluorescence emission ratio of peptide” value ([1]; Log concentration of PTP-B −12.7) was 1.75. The “Fluorescence emission ratio of peptide” value ([1]; Log concentration of PTP-B −13.7) was 1.62, the “Fluorescence emission ratio of peptide” value ([1]; Log concentration of PTP-B −14.7) was 1.60 and the kcat ([1]; phosphorylated probe, PTP-B) was 79 s⁻¹. The Km ([1]; phosphorylated probe, PTP-B, Michaelis-Menten plot, read-out: apparent Km) was 1.3 µM and the Km (Src kinase) was 19 µM.
In the case of “RRRKFSLRRKA ({FITC}-RRRKFSLRRKA; not fully specified (residue 6, C-terminus)) [SEQ. ID. NO: 12, peptide labeled with fluorescein isothiocyanate at N-terminus and 7-hydroxycoumarin-3-carboxamide at C-terminus; protein kinase A and C probe]”, the “effect of phosphorylation by protein kinase C on proteolytic susceptibility of the substrate” value (protein kinase C) is reported as “significantly modulated”, the “460/530 emission ratio, Non-phosphorylated Optical probe” value (chymotrypsin; time of cleavage 0 minutes) is reported as 0.34 and the “460/530 emission ratio, Phosphorylated Optical probe” value (chymotrypsin; time of cleavage 0 minutes) is reported as 0.33. The “460/530 emission ratio, Non-phosphorylated Optical probe” value (chymotrypsin; time of cleavage 10 minutes) was 3.15, the “460/530 emission ratio, Phosphorylated Optical probe” value (chymotrypsin; time of cleavage 10 minutes) was 0.54 and the “460/530 emission ratio, Non-phosphorylated Optical probe” value (chymotrypsin; time of cleavage 20 minutes) was 6.71. For the same compound, the “460/530 emission ratio, Phosphorylated Optical probe” value (chymotrypsin; time of cleavage 20 minutes) was 0.78, the “460/530 emission ratio, Phosphorylated Optical probe” value (chymotrypsin; time of cleavage 30 minutes) was 1.02 and the “460/530 emission ratio, Phosphorylated Optical probe” value (chymotrypsin; time of cleavage 40 minutes) was 1.27. For the same compound, the “460/530 emission ratio, Non-phosphorylated Optical probe” value (chymotrypsin; time of cleavage 50 minutes) was 13.34, the “460/530 emission ratio, Phosphorylated Optical probe” value (chymotrypsin; time of cleavage 50 minutes) was 1.53 and the “460/530 emission ratio, Phosphorylated Optical probe” value (chymotrypsin; time of cleavage 60 minutes) was 1.78. For the same compound, the “Fold difference in ratios” value (chymotrypsin; time of cleavage 0 minutes) was 1.0, the “Fold difference in ratios” value (chymotrypsin; time of cleavage 10 minutes) was 5.8 and the “Fold difference in ratios” value (chymotrypsin; time of cleavage 20 minutes) was 8.6. For the same compound, the “Fold difference in ratios” value (chymotrypsin; time of cleavage 30 minutes) was 9.7, the “Fold difference in ratios” value (chymotrypsin; time of cleavage 40 minutes) was 9.5 and the “Fold difference in ratios” value (chymotrypsin; time of cleavage 50 minutes) was 8.7. The “Fold difference in ratios” value (chymotrypsin; time of cleavage 60 minutes) was 7.9.
“RVDEPFSPGEK (Optical probe with p-Ser in P′(sub 1)) [SEQ. ID. NO: 24, ERK kinase specific optical probe cleaved by caspase-3]” was tested, and the “maximal difference in emission ratio of phosphorylated and non-phosphorylated optical probes” value (caspase-3) was “over a three fold difference”.
